Measurements from publication PMC10491024 (Cell reports, 2023).

T1: FP8v1-rTTHC (HIV-1, fusion peptide 512-519 (BG505 …))
T1 construct: also called fusion peptide
T1 chain: AVGIGAVF

T2: FP6v1-rTTHC (HIV-1, fusion peptide 512-517)
T2 construct: also called shorter peptides
T2 chain: AVGIGA

T3: FP7v1-rTTHC (HIV-1, fusion peptide 512-518)
T3 construct: also called shorter peptides
T3 chain: AVGIGAV


Assays:
Settings in all cases: both partners purified
[1] = target: T1, FP8v1-rTTHC; test: ELISA
[2] = target: T2, FP6v1-rTTHC; test: ELISA; plates coated with 2 μg/mL fusion peptide-rTTHC; 2C06 or 2C09 antibody serially diluted from 2 μg/mL, 1 h 37°C; anti-human IgG-HRP
[3] = target: T3, FP7v1-rTTHC; test: as above

| Binder | binding result [1] | binding result [2] | binding result [3] |
| --- | --- | --- | --- |
| N751-2C06.01 IgG (antibody, V domains shown) VH: EVQLVESGGGLVQPGGSLRLSCSASGFTFSSYAMHWVRQAPGKGLEYVSAISGNGDSTYYADSVRGRFTISRDNSKNTLYLQMSSLRAEDTAVYYCVKQAAYCTRTSCYYFDYWGQGTLVTVSS VL: not shown | binds |  |  |
| N751-2C09.01 IgG (antibody, V domains shown) VH: EVQLVESGEGLVQPGGSLRLSCAASGFTFSSHAMHWVRQAPGKGLEYVSAISSEGGSTYYADSVRGRFIISRDNSKNTLYLQMGSLRAEDMAVYYCARVTGDYNWYFDLWGRGTLVTVSS VL: EIVMTQSPATLSVSPGERATLSCRASQGVSSNLAWYQQKPGQAPRLLIHGASTRATGSPARFSGSGSGTEFTLTISSLQSEDFAVYSCQQYHNWPWTFGQGTKVEIK | binds | binds | binds |
